Positions count from the first letter of the chain named.

The record followed here is US20260151494A1 (ARO BIOTHERAPEUTICS, published 2026).

The target of assay [1] is T1, human CD71 extracellular domain (human, UniProt P02786 89-760, biotinylated).
T1 construct: also called hCD71; CD71-ECD
The assay is described as follows: primary ELISA, RLU over HSA. On the technique in general: An ELISA detects its analyte on a solid surface through an enzyme-linked reagent.

Assay [2] has as its target T2, apical domain of human CD71 (human, UniProt P02786 189-383, limits assumed).
T2 construct: domain: apical domain; Screen 4 panned on human apical domains, the ELISA text says only 'apical domain'
The experiment in a line: primary ELISA, RLU over HSA.

Assay [3] concerns the target T1, human CD71 extracellular domain. The assay is described as follows: primary ELISA. Further: test concentration or dose not given here.
The target in assay [4] is T2, apical domain of human CD71. The experiment in a line: primary ELISA. Further: test concentration or dose not given here.

T1 sequence (P02786 89-760): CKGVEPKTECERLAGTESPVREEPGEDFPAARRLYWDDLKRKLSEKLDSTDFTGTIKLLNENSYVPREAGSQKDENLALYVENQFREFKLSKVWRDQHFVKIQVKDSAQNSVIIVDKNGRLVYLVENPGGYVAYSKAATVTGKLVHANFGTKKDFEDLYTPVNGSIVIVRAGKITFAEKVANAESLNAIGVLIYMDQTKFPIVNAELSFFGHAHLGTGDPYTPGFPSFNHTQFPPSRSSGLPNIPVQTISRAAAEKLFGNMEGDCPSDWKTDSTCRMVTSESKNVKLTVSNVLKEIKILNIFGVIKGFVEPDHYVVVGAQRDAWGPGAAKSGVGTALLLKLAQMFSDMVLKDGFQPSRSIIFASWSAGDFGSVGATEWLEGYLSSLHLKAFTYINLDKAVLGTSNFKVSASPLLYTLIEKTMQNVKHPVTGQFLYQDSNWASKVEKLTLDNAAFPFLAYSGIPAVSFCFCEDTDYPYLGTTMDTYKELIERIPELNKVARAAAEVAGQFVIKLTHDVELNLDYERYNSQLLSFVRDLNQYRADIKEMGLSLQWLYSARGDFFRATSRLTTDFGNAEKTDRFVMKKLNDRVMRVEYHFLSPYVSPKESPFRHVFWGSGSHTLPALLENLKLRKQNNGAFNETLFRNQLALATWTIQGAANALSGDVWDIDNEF
T2 sequence (P02786 189-383 limits assumed): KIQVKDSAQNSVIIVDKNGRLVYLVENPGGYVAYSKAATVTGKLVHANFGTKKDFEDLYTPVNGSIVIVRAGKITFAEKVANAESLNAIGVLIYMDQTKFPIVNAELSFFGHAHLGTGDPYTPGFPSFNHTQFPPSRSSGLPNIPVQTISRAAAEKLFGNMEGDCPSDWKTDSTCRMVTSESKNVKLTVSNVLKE

B1: CD71-binding FN3 domain of SEQ ID NO: 460 (designed binder)
chain: MLPAPKNLVVSRVTEDSARLSWTAPDAAFDSFFIGYLEPQPPGEAISLYVPGSERSYDQTGLKPGTEYNVTIQGVKGGFPSDPLSARFTT
For B1, the “hCD71:HSA” value in assay [1] stood at 143. In addition, in assay [2], the “Apical domain:HSA” value is 148. Besides, the RLU stood at 2.69e+06 RLU in assay [3] and 2.8e+06 RLU in assay [4].

B2: CD71-binding FN3 domain of SEQ ID NO: 461 (designed binder)
chain: B1 chain with S47G, Y49F, Q59L, D82M, A86P, R87I
For the molecule B2, the “hCD71:HSA” value in assay [1] came out at 117. The “Apical domain:HSA” value in assay [2] worked out at 166. The RLU in assay [3] turned out to be 3.77e+06 RLU; in assay [4] it was 5.35e+06 RLU.

B3: CD71-binding FN3 domain of SEQ ID NO: 473 (designed binder)
chain: B1 chain with S47D, Y49W, Q59L, D82L, R87S
As to B3, in assay [1], the “hCD71:HSA” value was found to be 88. Moreover, in assay [2], the “Apical domain:HSA” value was 91. Moreover, the RLU in assay [3] was 2.91e+06 RLU; in assay [4], 3.03e+06 RLU.

B4: CD71-binding FN3 domain of SEQ ID NO: 476 (designed binder)
chain: B1 chain with S47H, Y49Q, Q59L, D82I, S85I, R87V
As for B4, the “hCD71:HSA” value in assay [1] worked out at 262. Also, in assay [2], the “Apical domain:HSA” value is 215. For the same molecule, the RLU in assay [3] was 4.15e+06 RLU; in assay [4], 3.4e+06 RLU.

B5: CD71-binding FN3 domain of SEQ ID NO: 469 (designed binder)
chain: B1 chain with S47H, Q59L, D82L, S85V, R87T
B5: the “hCD71:HSA” value in assay [1] is 73. Besides, the “Apical domain:HSA” value in assay [2] is 75. The RLU in assay [3] came out at 5.4e+06 RLU; in assay [4] it was 5.56e+06 RLU.

B6: CD71-binding FN3 domain of SEQ ID NO: 475 (designed binder)
chain: B1 chain with S47T, Q59L, D82I, R87E
In the case of B6, in assay [1], the “hCD71:HSA” value amounted to 101. In addition, the “Apical domain:HSA” value in assay [2] was found to be 94. Further, the RLU came to 3.46e+06 RLU in assay [3] and 3.21e+06 RLU in assay [4].

B7: CD71-binding FN3 domain of SEQ ID NO: 491 (designed binder)
chain: B1 chain with P42S, S47H, Y49I, Q59L, S85V, R87S
Regarding B7, the “hCD71:HSA” value in assay [1] worked out at 265. Also, the “Apical domain:HSA” value in assay [2] stood at 288. The RLU in assay [3] is 4.66e+06 RLU; in assay [4], 5.07e+06 RLU.

B8: CD71-binding FN3 domain of SEQ ID NO: 487 (designed binder)
chain: B1 chain with S47G, Y49R, Q59L, D82E, S85I, R87D
As to B8, the “hCD71:HSA” value in assay [1] was 146. The “Apical domain:HSA” value in assay [2] came to 220. Besides, the RLU in assay [3] was found to be 2.27e+06 RLU; in assay [4], 3.43e+06 RLU.

B9: CD71-binding FN3 domain of SEQ ID NO: 481 (designed binder)
chain: B1 chain with S47T, Q59M, D82L, S85Q, R87H
In the case of B9, the “hCD71:HSA” value in assay [1] was 816. For the same molecule, in assay [2], the “Apical domain:HSA” value turned out to be 803. Further, the results for the RLU in assay [3] and in assay [4] were 3.71e+06 RLU and 3.65e+06 RLU, respectively.

B10: CD71-binding FN3 domain of SEQ ID NO: 467 (designed binder)
chain: B1 chain with S47Q, Y49L, Q59L, S85V, R87Y, F88S
Regarding B10, the “hCD71:HSA” value in assay [1] was 27. In assay [2], the “Apical domain:HSA” value was found to be 45. Moreover, the values for the RLU in assay [3] and in assay [4] were 1.18e+06 RLU and 2e+06 RLU, respectively.

B11: CD71-binding FN3 domain of SEQ ID NO: 486 (designed binder)
chain: B1 chain with K6E, P25L, Y49L, Q59L, F79I, P80A, D82E, R87A
As for B11, the “hCD71:HSA” value in assay [1] worked out at 297. In addition, in assay [2], the “Apical domain:HSA” value was 335. For the same molecule, the results for the RLU in assay [3] and in assay [4] were 1.75e+06 RLU and 1.98e+06 RLU, respectively.

B12: CD71-binding FN3 domain of SEQ ID NO: 474 (designed binder)
chain: B1 chain with S47G, Y49A, Q59L, D82E, S85I, R87D
B12: in assay [1], the “hCD71:HSA” value turned out to be 312. Moreover, in assay [2], the “Apical domain:HSA” value was determined as 279. For the same molecule, the RLU was determined as 3.04e+06 RLU in assay [3] and 2.72e+06 RLU in assay [4].

B13: CD71-binding FN3 domain of SEQ ID NO: 482 (designed binder)
chain: B1 chain with V9I, S47H, Y49Q, Q59L, D82N, S85H, R87E
Turning to B13, the “hCD71:HSA” value in assay [1] was 247. In addition, the “Apical domain:HSA” value in assay [2] worked out at 295. Further, the RLU in assay [3] was found to be 2.23e+06 RLU; in assay [4], 2.66e+06 RLU.

B14: CD71-binding FN3 domain of SEQ ID NO: 483 (designed binder)
chain: B1 chain with S47T, Y49V, Q59L, S85V, R87S
Take B14: in assay [1], the “hCD71:HSA” value is 136. In addition, in assay [2], the “Apical domain:HSA” value is 154. The figures for the RLU in assay [3] and in assay [4] were 3.05e+06 RLU and 3.47e+06 RLU, respectively.

B15: CD71-binding FN3 domain of SEQ ID NO: 485 (designed binder)
chain: B1 chain with S47H, Y49W, Q59L, D82L, S85L, R87K
With B15, in assay [1], the “hCD71:HSA” value is 66. In addition, in assay [2], the “Apical domain:HSA” value was determined as 86. In addition, the figures for the RLU in assay [3] and in assay [4] were 2.47e+06 RLU and 3.23e+06 RLU, respectively.

B16: CD71-binding FN3 domain of SEQ ID NO: 464 (designed binder)
chain: B1 chain with S47Q, Y49F, Q59L, D82T, S85V, R87S
Take B16: the “hCD71:HSA” value in assay [1] turned out to be 140. Moreover, the “Apical domain:HSA” value in assay [2] was found to be 160. Further, the RLU in assay [3] came to 4.94e+06 RLU; in assay [4], 5.68e+06 RLU.

B17: CD71-binding FN3 domain of SEQ ID NO: 490 (designed binder)
chain: B1 chain with Y49Q, Q59L, D82A, S85V, R87N
Regarding B17, the “hCD71:HSA” value in assay [1] is 403. The “Apical domain:HSA” value in assay [2] was found to be 281. Besides, the RLU in assay [3] came out at 4.15e+06 RLU; in assay [4] it was 2.9e+06 RLU.

B18: CD71-binding FN3 domain of SEQ ID NO: 470 (designed binder)
chain: B1 chain with S47T, Y49L, Q59L, D82M, R87I
Regarding B18, the “hCD71:HSA” value in assay [1] stood at 79. The “Apical domain:HSA” value in assay [2] was 152. Also, the RLU in assay [3] is 2.47e+06 RLU; in assay [4], 4.74e+06 RLU.

B19: CD71-binding FN3 domain of SEQ ID NO: 462 (designed binder)
chain: B1 chain with S47H, Y49Q, Q59L, D82V, S85H
B19: the “hCD71:HSA” value in assay [1] stood at 76. In addition, in assay [2], the “Apical domain:HSA” value was 88. In addition, the results for the RLU in assay [3] and in assay [4] were 2.83e+06 RLU and 3.28e+06 RLU, respectively.

B20: CD71-binding FN3 domain of SEQ ID NO: 479 (designed binder)
chain: B1 chain with S47N, Y49W, Q59L, D82T, S85F, R87G
Turning to B20, the “hCD71:HSA” value in assay [1] is 206. Besides, the “Apical domain:HSA” value in assay [2] was 373. In addition, the values for the RLU in assay [3] and in assay [4] were 2.66e+06 RLU and 4.83e+06 RLU, respectively.

B21: CD71-binding FN3 domain of SEQ ID NO: 478 (designed binder)
chain: B1 chain with S47H, Q59L, D82V, S85I, R87K
Consider B21, for which the “hCD71:HSA” value in assay [1] came to 56. Further, the “Apical domain:HSA” value in assay [2] turned out to be 61. In addition, the figures for the RLU in assay [3] and in assay [4] were 5.39e+06 RLU and 5.9e+06 RLU, respectively.

B22: CD71-binding FN3 domain of SEQ ID NO: 493 (designed binder)
chain: B1 chain with S47L, Y49A, Q59L, D82L, S85V, R87H
For B22, in assay [1], the “hCD71:HSA” value was 190. Besides, in assay [2], the “Apical domain:HSA” value amounted to 172. Also, the RLU in assay [3] amounted to 2.75e+06 RLU; in assay [4], 2.5e+06 RLU.

B23: CD71-binding FN3 domain of SEQ ID NO: 472 (designed binder)
chain: B1 chain with S47E, Q59L, D82L, S85V, R87T
Regarding B23, the “hCD71:HSA” value in assay [1] turned out to be 162. The “Apical domain:HSA” value in assay [2] worked out at 178. In addition, the results for the RLU in assay [3] and in assay [4] were 4.52e+06 RLU and 4.97e+06 RLU, respectively.

B24: CD71-binding FN3 domain of SEQ ID NO: 465 (designed binder)
chain: B1 chain with S47D, Q59L, D82E, S85W, R87D
In the case of B24, the “hCD71:HSA” value in assay [1] came out at 129. Also, the “Apical domain:HSA” value in assay [2] came to 138. The RLU came out at 3.86e+06 RLU in assay [3] and 4.15e+06 RLU in assay [4].
